From patent US20090093061A1

Experiments:
Assay in all cases: GroEL-490 bead column capture of denatured serum, ATP elution, LC-MS-MS
[1] = molecular target: similar to zinc finger, CW-type with PWWP domain 1 (Homo sapiens)
[2] = molecular target: tumor protein p53 binding protein, 2 (Homo sapiens) (UniProt Q13625)
[3] = molecular target: human immunodeficiency virus type I enhancer binding protein 2 (Homo sapiens) (UniProt P31629)
[4] = molecular target: neutral sphingomyelinase (N-SMase) activation associated factor (Homo sapiens) (UniProt Q92636)
[5] = molecular target: DNA polymerase theta isoform 1 (Homo sapiens) (UniProt O75417)
[6] = molecular target: E74-like factor 4 (ets domain transcription factor) (Homo sapiens) (UniProt Q99607)
[7] = molecular target: 3-hydroxyanthranilate 3,4-dioxygenase (Homo sapiens) (UniProt P46952)
[8] = molecular target: dendrin (Homo sapiens) (UniProt O94850)
[9] = molecular target: Rho GTPase activating protein 5 (Homo sapiens) (UniProt Q13017)
[10] = molecular target: titin isoform novex-2 (Homo sapiens) (UniProt Q8WZ42)
[11] = molecular target: SPRY domain-containing SOCS box protein SSB-4 (Homo sapiens) (UniProt Q96A44)
[12] = molecular target: ectonucleoside triphosphate diphosphohydrolase 7 (Homo sapiens) (UniProt Q9NQZ7)
[13] = molecular target: hypothetical protein XP_376158 (Homo sapiens)
[14] = molecular target: angiomotin like 2 (Homo sapiens) (UniProt Q9Y2J4)
[15] = molecular target: coronin, actin binding protein, 1B (Homo sapiens) (UniProt Q9BR76)
[16] = molecular target: bassoon (Homo sapiens) (UniProt Q9UPA5)
[17] = molecular target: complement component 3 precursor (Homo sapiens) (UniProt P01024)
[18] = molecular target: chondroitin sulfate proteoglycan 6 (bamacan) (Homo sapiens) (UniProt Q9UQE7)
[19] = molecular target: target of myb1 (Homo sapiens) (UniProt O60784)
[20] = molecular target: H factor 1 (complement) (Homo sapiens) (UniProt P08603)
[21] = molecular target: DNA fragmentation factor, 45 kD, alpha polypeptide (Homo sapiens) (UniProt O00273)
[22] = molecular target: MAP/ERK kinase kinase 4 isoform a (Homo sapiens) (UniProt Q9Y6R4)
[23] = molecular target: triple functional domain (PTPRF interacting) (Homo sapiens) (UniProt O75962)
[24] = molecular target: LUC7-liKe 2 (Homo sapiens) (UniProt Q9Y383)
[25] = molecular target: serine (or cysteine) proteinase inhibitor, clade A (alpha-1 antiproteinase, antitrypsin), member 1 (UniProt P01009)
[26] = molecular target: similar to KIAA2018 protein (Homo sapiens) (UniProt Q68DE3)
[27] = molecular target: synovial sarcoma, X breakpoint 2 isoform a (Homo sapiens) (UniProt Q16385)
[28] = molecular target: hypothetical protein XP_378771 (Homo sapiens)
[29] = molecular target: UDP glycosyltransferase 1 family, polypeptide A9 (Homo sapiens) (UniProt O60656)
[30] = molecular target: complement component 4B proprotein (Homo sapiens) (UniProt P0C0L5)
[31] = molecular target: H2A histone family, member X (Homo sapiens) (UniProt P16104)
[32] = molecular target: complement component 4 binding protein, alpha (Homo sapiens) (UniProt P04003)
[33] = molecular target: inter-alpha (globulin) inhibitor, H2 polypeptide (Homo sapiens) (UniProt P19823)
[34] = molecular target: START domain containing 9 (Homo sapiens) (UniProt Q9P2P6)

Sequence of GroEL having Aspartate 490 substituted with Cysteine, biotinylated and conjugated onto NeutrAvidin beads (A1AJ51 whole entry D490C): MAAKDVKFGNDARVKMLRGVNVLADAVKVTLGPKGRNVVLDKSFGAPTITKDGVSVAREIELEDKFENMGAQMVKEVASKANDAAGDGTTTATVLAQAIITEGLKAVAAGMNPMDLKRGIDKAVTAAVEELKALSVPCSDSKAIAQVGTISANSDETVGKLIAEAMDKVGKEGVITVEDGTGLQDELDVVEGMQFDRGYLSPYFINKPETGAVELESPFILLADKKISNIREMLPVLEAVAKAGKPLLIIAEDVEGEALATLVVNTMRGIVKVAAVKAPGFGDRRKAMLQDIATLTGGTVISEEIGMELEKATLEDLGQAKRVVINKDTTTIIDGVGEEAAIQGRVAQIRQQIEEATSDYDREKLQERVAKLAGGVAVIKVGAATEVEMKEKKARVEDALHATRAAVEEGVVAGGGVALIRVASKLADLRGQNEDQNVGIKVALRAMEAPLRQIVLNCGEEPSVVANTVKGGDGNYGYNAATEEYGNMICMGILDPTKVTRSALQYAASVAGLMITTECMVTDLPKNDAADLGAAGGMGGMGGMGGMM
Sequence of serine (or cysteine) proteinase inhibitor, clade A (alpha-1 antiproteinase, antitrypsin), member 1 (P01009 25-418 limits assumed): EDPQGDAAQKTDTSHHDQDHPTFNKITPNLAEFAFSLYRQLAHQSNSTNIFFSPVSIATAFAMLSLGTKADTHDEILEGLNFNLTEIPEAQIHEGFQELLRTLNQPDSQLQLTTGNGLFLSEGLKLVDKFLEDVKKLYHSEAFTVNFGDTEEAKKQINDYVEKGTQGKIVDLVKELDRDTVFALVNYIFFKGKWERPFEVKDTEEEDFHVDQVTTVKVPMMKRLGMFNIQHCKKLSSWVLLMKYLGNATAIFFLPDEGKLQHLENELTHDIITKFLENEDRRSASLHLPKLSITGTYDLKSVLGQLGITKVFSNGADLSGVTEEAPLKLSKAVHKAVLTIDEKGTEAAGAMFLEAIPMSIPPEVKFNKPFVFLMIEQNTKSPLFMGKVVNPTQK
Sequence of UDP glycosyltransferase 1 family, polypeptide A9 (Homo sapiens) (O60656 26-530): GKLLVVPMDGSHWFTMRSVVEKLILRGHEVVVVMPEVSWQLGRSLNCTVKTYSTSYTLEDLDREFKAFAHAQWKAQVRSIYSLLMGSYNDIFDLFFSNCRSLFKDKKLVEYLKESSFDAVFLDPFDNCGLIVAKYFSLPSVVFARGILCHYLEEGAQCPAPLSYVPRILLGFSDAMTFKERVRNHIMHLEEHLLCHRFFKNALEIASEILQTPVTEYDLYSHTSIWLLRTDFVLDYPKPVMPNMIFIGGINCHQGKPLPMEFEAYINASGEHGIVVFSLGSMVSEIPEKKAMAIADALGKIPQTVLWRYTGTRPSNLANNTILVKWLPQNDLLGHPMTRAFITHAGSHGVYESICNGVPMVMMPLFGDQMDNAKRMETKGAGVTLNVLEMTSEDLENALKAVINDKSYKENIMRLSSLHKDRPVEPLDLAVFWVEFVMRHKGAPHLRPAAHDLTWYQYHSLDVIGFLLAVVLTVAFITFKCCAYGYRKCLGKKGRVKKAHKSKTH
Sequence of similar to zinc finger, CW-type with PWWP domain 1 (Homo sapiens) (Q504Y3 whole entry, the tested form may be a part): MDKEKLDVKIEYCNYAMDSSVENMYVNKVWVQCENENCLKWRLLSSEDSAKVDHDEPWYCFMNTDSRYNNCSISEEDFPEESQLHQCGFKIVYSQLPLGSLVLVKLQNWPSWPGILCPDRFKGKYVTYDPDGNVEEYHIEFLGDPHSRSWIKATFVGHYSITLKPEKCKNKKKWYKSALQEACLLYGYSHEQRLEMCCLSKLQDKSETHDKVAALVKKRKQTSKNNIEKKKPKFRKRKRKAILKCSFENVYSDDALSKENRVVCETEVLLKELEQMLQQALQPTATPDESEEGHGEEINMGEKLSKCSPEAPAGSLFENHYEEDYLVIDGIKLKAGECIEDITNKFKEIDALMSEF
Sequence of E74-like factor 4 (ets domain transcription factor) (Homo sapiens) (Q99607 whole entry, the tested form may be a part): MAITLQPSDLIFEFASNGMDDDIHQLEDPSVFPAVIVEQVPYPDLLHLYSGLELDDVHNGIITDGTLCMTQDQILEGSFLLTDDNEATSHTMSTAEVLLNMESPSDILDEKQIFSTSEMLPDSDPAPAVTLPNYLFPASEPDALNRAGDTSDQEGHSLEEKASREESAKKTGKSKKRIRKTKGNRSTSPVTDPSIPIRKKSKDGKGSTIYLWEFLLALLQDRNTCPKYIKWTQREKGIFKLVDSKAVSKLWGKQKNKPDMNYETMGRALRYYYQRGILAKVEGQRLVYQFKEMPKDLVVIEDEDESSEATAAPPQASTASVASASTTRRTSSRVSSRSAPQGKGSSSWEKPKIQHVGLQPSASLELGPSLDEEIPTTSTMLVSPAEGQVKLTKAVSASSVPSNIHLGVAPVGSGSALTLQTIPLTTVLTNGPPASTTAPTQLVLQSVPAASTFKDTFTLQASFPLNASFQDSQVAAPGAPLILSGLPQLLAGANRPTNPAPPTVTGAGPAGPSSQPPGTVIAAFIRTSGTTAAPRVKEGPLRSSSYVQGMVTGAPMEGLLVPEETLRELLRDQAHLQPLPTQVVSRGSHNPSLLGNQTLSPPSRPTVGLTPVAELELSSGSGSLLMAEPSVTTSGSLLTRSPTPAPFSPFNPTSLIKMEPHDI
Sequence of synovial sarcoma, X breakpoint 2 isoform a (Homo sapiens) (Q16385 other isoform, or with tags, fused parts or gaps limits assumed): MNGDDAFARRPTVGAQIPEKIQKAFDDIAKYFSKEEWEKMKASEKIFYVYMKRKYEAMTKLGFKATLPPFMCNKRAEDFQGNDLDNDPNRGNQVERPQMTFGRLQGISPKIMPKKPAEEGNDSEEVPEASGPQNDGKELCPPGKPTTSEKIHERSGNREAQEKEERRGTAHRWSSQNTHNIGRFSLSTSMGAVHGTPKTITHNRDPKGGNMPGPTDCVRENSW
Sequence of 3-hydroxyanthranilate 3,4-dioxygenase (Homo sapiens) (P46952 whole entry): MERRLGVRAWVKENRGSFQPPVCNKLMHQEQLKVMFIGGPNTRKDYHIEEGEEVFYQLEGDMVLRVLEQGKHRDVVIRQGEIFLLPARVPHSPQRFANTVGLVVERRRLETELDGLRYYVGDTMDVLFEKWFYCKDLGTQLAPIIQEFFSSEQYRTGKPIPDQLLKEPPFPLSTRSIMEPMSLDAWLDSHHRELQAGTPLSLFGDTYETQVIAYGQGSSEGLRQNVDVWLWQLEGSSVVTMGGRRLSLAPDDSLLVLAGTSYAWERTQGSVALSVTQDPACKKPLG
Sequence of inter-alpha (globulin) inhibitor, H2 polypeptide (Homo sapiens) (P19823 55-702): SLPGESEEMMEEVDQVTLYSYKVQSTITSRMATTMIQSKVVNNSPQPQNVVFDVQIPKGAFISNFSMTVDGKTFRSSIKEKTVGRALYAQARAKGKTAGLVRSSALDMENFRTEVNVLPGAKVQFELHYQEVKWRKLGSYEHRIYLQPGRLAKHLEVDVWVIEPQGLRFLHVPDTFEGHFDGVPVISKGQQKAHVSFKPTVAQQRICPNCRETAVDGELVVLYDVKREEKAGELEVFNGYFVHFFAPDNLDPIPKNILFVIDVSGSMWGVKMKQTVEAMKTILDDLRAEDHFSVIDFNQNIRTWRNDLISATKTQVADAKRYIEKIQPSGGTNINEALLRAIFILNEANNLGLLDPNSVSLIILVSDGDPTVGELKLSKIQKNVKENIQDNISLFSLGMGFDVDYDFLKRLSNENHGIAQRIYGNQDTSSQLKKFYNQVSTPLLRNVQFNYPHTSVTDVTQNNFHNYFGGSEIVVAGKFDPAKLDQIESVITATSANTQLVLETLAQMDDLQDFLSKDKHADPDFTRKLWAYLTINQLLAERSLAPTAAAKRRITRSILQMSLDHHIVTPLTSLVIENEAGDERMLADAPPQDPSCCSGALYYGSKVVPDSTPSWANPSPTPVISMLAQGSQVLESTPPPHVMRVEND
Sequence of tumor protein p53 binding protein, 2 (Homo sapiens) (Q13625 124-1128 limits assumed): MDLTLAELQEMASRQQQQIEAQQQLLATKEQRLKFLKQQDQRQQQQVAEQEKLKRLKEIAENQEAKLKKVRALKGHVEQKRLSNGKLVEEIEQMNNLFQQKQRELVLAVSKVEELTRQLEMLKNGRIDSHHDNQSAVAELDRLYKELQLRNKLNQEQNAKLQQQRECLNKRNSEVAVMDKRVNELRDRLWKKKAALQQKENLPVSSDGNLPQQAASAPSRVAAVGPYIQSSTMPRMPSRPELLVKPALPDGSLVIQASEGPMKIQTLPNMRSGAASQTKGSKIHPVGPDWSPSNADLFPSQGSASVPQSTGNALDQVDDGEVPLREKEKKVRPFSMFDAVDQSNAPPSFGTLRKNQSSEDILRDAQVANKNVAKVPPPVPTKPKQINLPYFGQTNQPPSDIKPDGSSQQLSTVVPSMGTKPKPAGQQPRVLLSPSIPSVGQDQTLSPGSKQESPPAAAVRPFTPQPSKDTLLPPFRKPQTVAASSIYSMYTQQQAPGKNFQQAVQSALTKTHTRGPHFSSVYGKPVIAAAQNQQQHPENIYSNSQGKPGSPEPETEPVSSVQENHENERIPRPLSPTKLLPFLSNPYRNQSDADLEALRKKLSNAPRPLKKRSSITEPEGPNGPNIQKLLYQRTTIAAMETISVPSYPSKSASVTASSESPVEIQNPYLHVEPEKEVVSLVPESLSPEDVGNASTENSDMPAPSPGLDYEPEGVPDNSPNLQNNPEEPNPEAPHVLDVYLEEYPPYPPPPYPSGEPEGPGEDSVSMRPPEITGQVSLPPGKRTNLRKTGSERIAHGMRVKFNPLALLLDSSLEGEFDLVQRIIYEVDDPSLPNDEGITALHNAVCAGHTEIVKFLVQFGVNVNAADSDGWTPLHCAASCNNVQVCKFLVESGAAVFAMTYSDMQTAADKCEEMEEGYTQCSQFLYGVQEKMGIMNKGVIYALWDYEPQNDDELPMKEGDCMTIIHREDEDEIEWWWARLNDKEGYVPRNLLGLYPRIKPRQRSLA
Sequence of SPRY domain-containing SOCS box protein SSB-4 (Homo sapiens) (Q96A44 whole entry, the tested form may be a part): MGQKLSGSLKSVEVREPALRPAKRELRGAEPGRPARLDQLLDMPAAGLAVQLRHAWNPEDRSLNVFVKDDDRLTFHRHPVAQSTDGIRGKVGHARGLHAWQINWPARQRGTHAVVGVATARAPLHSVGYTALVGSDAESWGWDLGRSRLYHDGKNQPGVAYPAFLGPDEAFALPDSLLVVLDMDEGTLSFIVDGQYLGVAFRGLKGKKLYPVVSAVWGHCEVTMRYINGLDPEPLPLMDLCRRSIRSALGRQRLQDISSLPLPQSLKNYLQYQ

Spectrum Count [1]: 16 count | Spectrum Count [2]: 9 count | Spectrum Count [3]: 14 count | Spectrum Count [4]: 9 count | Spectrum Count [5]: 24 count | Spectrum Count [6]: 17 count | Spectrum Count [7]: 9 count | Spectrum Count [8]: 14 count | Spectrum Count [9]: 12 count | Spectrum Count [10]: 56 count | Spectrum Count [11]: 30 count | Spectrum Count [12]: 41 count | Spectrum Count [13]: 15 count | Spectrum Count [14]: 17 count | Spectrum Count [15]: 28 count | Spectrum Count [16]: 12 count | Spectrum Count [17]: 43 count | Spectrum Count [18]: 9 count | Spectrum Count [19]: 30 count | Spectrum Count [20]: 12 count | Spectrum Count [21]: 14 count | Spectrum Count [22]: 13 count | Spectrum Count [23]: 14 count | Spectrum Count [24]: 15 count | Spectrum Count [25]: 20 count | Spectrum Count [26]: 12 count | Spectrum Count [27]: 21 count | Spectrum Count [28]: 17 count | Spectrum Count [29]: 13 count | Spectrum Count [30]: 11 count | Spectrum Count [31]: 41 count | Spectrum Count [32]: 14 count | Spectrum Count [33]: 10 count | Spectrum Count [34]: 10 count
Substance: GroEL having Aspartate 490 substituted with Cysteine, biotinylated and conjugated onto NeutrAvidin beads (from UniProt A1AJ51 1-548)
